# From the supplement of paper PMC9112550, “Optimization of the antimicrobial peptide Bac7 by deep mutational scanning” (BMC Biology, 2022)
# Tested on: Escherichia coli TOP10
# Experiment: shrunken log2 fold change of peptide-encoding DNA abundance (4.5 h post-induction vs induction); higher = less antimicrobial activity (less host growth inhibition)
# Details: time post-induction: 4.5 h; library: site-saturation at positions 5, 18, 19, 20
# 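Further: peptides expressed intracellularly from a pBAD plasmid library in pooled LB shake-flask culture, induced with 0.3% L-arabinose, DNA abundance read by NGS, three biological replicates, DESeq2 with apeglm shrinkage.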
row,Sequence,shrunken log2 fold change
1,RRIRCRPPRLPRPRPRPRDAPRP,0.56
2,RRIRCRPPRLPRPRPRPRELPRP,0.506
3,RRIRCRPPRLPRPRPRPREPPRP,0.211
4,RRIRCRPPRLPRPRPRPREYPRP,-0.22
5,RRIRCRPPRLPRPRPRPRFAPRP,0.356
6,RRIRCRPPRLPRPRPRPRGAPRP,0.766
7,RRIRCRPPRLPRPRPRPRGCPRP,0.395
8,RRIRCRPPRLPRPRPRPRGMPRP,1.56
9,RRIRCRPPRLPRPRPRPRIGPRP,0.016
10,RRIRCRPPRLPRPRPRPRKDPRP,-0.0271
11,RRIRCRPPRLPRPRPRPRLHPRP,-0.0571
12,RRIRCRPPRLPRPRPRPRNEPRP,-0.0561
13,RRIRCRPPRLPRPRPRPRNHPRP,-0.0709
14,RRIRCRPPRLPRPRPRPRNNPRP,-0.282
15,RRIRCRPPRLPRPRPRPRPAPRP,0.834
16,RRIRCRPPRLPRPRPRPRQCPRP,0.0586
17,RRIRCRPPRLPRPRPRPRQIPRP,0.192
18,RRIRCRPPRLPRPRPRPRSEPRP,0.325
19,RRIRCRPPRLPRPRPRPRSMPRP,-0.0145
20,RRIRCRPPRLPRPRPRPRSRPRP,0.299
21,RRIRCRPPRLPRPRPRPRTMPRP,-0.0155
22,RRIRCRPPRLPRPRPRPRTNPRP,0.0761
23,RRIRCRPPRLPRPRPRPRTRPRP,0.47
24,RRIRCRPPRLPRPRPRPRTVPRP,0.0809
25,RRIRCRPPRLPRPRPRPRVDPRP,0.113

row,Sequence,shrunken log2 fold change
1,RRIRCRPPRLPRPRPRPRWFPRP,0.0519
2,RRIRCRPPRLPRPRPRPRWGPRP,0.495
3,RRIRCRPPRLPRPRPRPRYDPRP,-0.596
4,RRIRCRPPRLPRPRPRPRYYPRP,-0.612
5,RRIRCRPPRLPRPRPRPSATPRP,0.593
6,RRIRCRPPRLPRPRPRPSAVPRP,-0.0828
7,RRIRCRPPRLPRPRPRPSEEPRP,-0.0443
8,RRIRCRPPRLPRPRPRPSFAPRP,-0.0835
9,RRIRCRPPRLPRPRPRPSIIPRP,-0.348
10,RRIRCRPPRLPRPRPRPSIPPRP,-0.969
11,RRIRCRPPRLPRPRPRPSIVPRP,-0.965
12,RRIRCRPPRLPRPRPRPSKEPRP,0.0893
13,RRIRCRPPRLPRPRPRPSKIPRP,-0.597
14,RRIRCRPPRLPRPRPRPSKPPRP,-0.109
15,RRIRCRPPRLPRPRPRPSLFPRP,-0.293
16,RRIRCRPPRLPRPRPRPSLPPRP,-0.0253
17,RRIRCRPPRLPRPRPRPSMHPRP,-0.346
18,RRIRCRPPRLPRPRPRPSMLPRP,-0.727
19,RRIRCRPPRLPRPRPRPSMRPRP,0.303
20,RRIRCRPPRLPRPRPRPSNFPRP,-0.627
21,RRIRCRPPRLPRPRPRPSNQPRP,-0.414
22,RRIRCRPPRLPRPRPRPSPTPRP,0.022
23,RRIRCRPPRLPRPRPRPSQAPRP,-0.0139
24,RRIRCRPPRLPRPRPRPSQYPRP,-0.471
25,RRIRCRPPRLPRPRPRPSSHPRP,-0.0983

row,Sequence,shrunken log2 fold change
1,RRIRCRPPRLPRPRPRPSTSPRP,-0.282
2,RRIRCRPPRLPRPRPRPSVCPRP,0.0114
3,RRIRCRPPRLPRPRPRPSVGPRP,0.0128
4,RRIRCRPPRLPRPRPRPSVIPRP,-0.0544
5,RRIRCRPPRLPRPRPRPSVLPRP,0.0648
6,RRIRCRPPRLPRPRPRPSWRPRP,-0.0716
7,RRIRCRPPRLPRPRPRPSYCPRP,-0.342
8,RRIRCRPPRLPRPRPRPSYVPRP,-0.786
9,RRIRCRPPRLPRPRPRPTADPRP,0.363
10,RRIRCRPPRLPRPRPRPTAFPRP,0.0759
11,RRIRCRPPRLPRPRPRPTAWPRP,0.79
12,RRIRCRPPRLPRPRPRPTCAPRP,0.178
13,RRIRCRPPRLPRPRPRPTCKPRP,-0.184
14,RRIRCRPPRLPRPRPRPTCTPRP,-0.2
15,RRIRCRPPRLPRPRPRPTDAPRP,0.215
16,RRIRCRPPRLPRPRPRPTDDPRP,2.22
17,RRIRCRPPRLPRPRPRPTDMPRP,-0.16
18,RRIRCRPPRLPRPRPRPTDSPRP,-0.118
19,RRIRCRPPRLPRPRPRPTDYPRP,1.93
20,RRIRCRPPRLPRPRPRPTELPRP,-0.106
21,RRIRCRPPRLPRPRPRPTFDPRP,-0.164
22,RRIRCRPPRLPRPRPRPTHFPRP,0.526
23,RRIRCRPPRLPRPRPRPTHLPRP,0.232
24,RRIRCRPPRLPRPRPRPTHVPRP,0.437
25,RRIRCRPPRLPRPRPRPTKMPRP,-0.301

row,Sequence,shrunken log2 fold change
1,RRIRCRPPRLPRPRPRPTMCPRP,-0.755
2,RRIRCRPPRLPRPRPRPTNQPRP,-0.427
3,RRIRCRPPRLPRPRPRPTPFPRP,0.207
4,RRIRCRPPRLPRPRPRPTPMPRP,0.534
5,RRIRCRPPRLPRPRPRPTQGPRP,0.954
6,RRIRCRPPRLPRPRPRPTQSPRP,0.565
7,RRIRCRPPRLPRPRPRPTRNPRP,0.444
8,RRIRCRPPRLPRPRPRPTRTPRP,0.406
9,RRIRCRPPRLPRPRPRPTTYPRP,-0.781
10,RRIRCRPPRLPRPRPRPTWFPRP,0.141
11,RRIRCRPPRLPRPRPRPTYQPRP,-0.346
12,RRIRCRPPRLPRPRPRPVCDPRP,-0.245
13,RRIRCRPPRLPRPRPRPVCIPRP,-0.499
14,RRIRCRPPRLPRPRPRPVCRPRP,-0.0309
15,RRIRCRPPRLPRPRPRPVCYPRP,-0.269
16,RRIRCRPPRLPRPRPRPVFPPRP,-0.15
17,RRIRCRPPRLPRPRPRPVGFPRP,0.0344
18,RRIRCRPPRLPRPRPRPVGLPRP,0.0659
19,RRIRCRPPRLPRPRPRPVHVPRP,-0.496
20,RRIRCRPPRLPRPRPRPVIIPRP,-1.28
21,RRIRCRPPRLPRPRPRPVINPRP,-0.116
22,RRIRCRPPRLPRPRPRPVKRPRP,0.0344
23,RRIRCRPPRLPRPRPRPVLMPRP,-0.00563
24,RRIRCRPPRLPRPRPRPVPRPRP,0.534
25,RRIRCRPPRLPRPRPRPVPYPRP,-0.533

row,Sequence,shrunken log2 fold change
1,RRIRCRPPRLPRPRPRPVQIPRP,-0.0351
2,RRIRCRPPRLPRPRPRPVRFPRP,0.262
3,RRIRCRPPRLPRPRPRPVSTPRP,-0.104
4,RRIRCRPPRLPRPRPRPVTTPRP,-0.0492
5,RRIRCRPPRLPRPRPRPVVEPRP,0.0964
6,RRIRCRPPRLPRPRPRPVWDPRP,-0.107
7,RRIRCRPPRLPRPRPRPVWNPRP,0.0577
8,RRIRCRPPRLPRPRPRPVWRPRP,0.358
9,RRIRCRPPRLPRPRPRPVYLPRP,-0.646
10,RRIRCRPPRLPRPRPRPVYNPRP,-0.378
11,RRIRCRPPRLPRPRPRPWAEPRP,-0.136
12,RRIRCRPPRLPRPRPRPWAIPRP,-0.0169
13,RRIRCRPPRLPRPRPRPWAVPRP,0.0183
14,RRIRCRPPRLPRPRPRPWCKPRP,0.145
15,RRIRCRPPRLPRPRPRPWDTPRP,-0.282
16,RRIRCRPPRLPRPRPRPWFMPRP,-0.776
17,RRIRCRPPRLPRPRPRPWHNPRP,-0.244
18,RRIRCRPPRLPRPRPRPWLYPRP,-0.246
19,RRIRCRPPRLPRPRPRPWMRPRP,0.19
20,RRIRCRPPRLPRPRPRPWPGPRP,0.123
21,RRIRCRPPRLPRPRPRPWPWPRP,0.0405
22,RRIRCRPPRLPRPRPRPWQLPRP,-0.263
23,RRIRCRPPRLPRPRPRPWSMPRP,-0.308
24,RRIRCRPPRLPRPRPRPWSPPRP,-0.0395
25,RRIRCRPPRLPRPRPRPWTFPRP,-0.126

row,Sequence,shrunken log2 fold change
1,RRIRCRPPRLPRPRPRPWTWPRP,0.00573
2,RRIRCRPPRLPRPRPRPWYIPRP,-0.331
3,RRIRCRPPRLPRPRPRPWYWPRP,-0.286
4,RRIRCRPPRLPRPRPRPYARPRP,-0.746
5,RRIRCRPPRLPRPRPRPYASPRP,-0.0843
6,RRIRCRPPRLPRPRPRPYCCPRP,-0.135
7,RRIRCRPPRLPRPRPRPYGFPRP,-0.515
8,RRIRCRPPRLPRPRPRPYHEPRP,-0.329
9,RRIRCRPPRLPRPRPRPYHPPRP,-0.539
10,RRIRCRPPRLPRPRPRPYHQPRP,-0.819
11,RRIRCRPPRLPRPRPRPYHWPRP,-1.09
12,RRIRCRPPRLPRPRPRPYIKPRP,-0.791
13,RRIRCRPPRLPRPRPRPYKTPRP,-0.404
14,RRIRCRPPRLPRPRPRPYLRPRP,-0.00889
15,RRIRCRPPRLPRPRPRPYNMPRP,-0.188
16,RRIRCRPPRLPRPRPRPYPCPRP,0.00458
17,RRIRCRPPRLPRPRPRPYPDPRP,-0.282
18,RRIRCRPPRLPRPRPRPYPQPRP,-0.595
19,RRIRCRPPRLPRPRPRPYPVPRP,-0.441
20,RRIRCRPPRLPRPRPRPYQDPRP,-0.725
21,RRIRCRPPRLPRPRPRPYQNPRP,-1.1
22,RRIRCRPPRLPRPRPRPYQRPRP,0.055
23,RRIRCRPPRLPRPRPRPYTEPRP,-1.42
24,RRIRCRPPRLPRPRPRPYVTPRP,-0.893
25,RRIRCRPPRLPRPRPRPYYCPRP,-1.03
